# Test system: plasma purified human AT-III (antithrombin III)
# Test: same assay; ratio of K0.5 to Catalyst Biosciences WT FIXa
row,Substance,K0.5-mut/K0.5-wt
1,FIXa A103N/N105S,1.1 fold
2,"BeneFIX Coagulation Factor IX (Recombinant), activated (FIXa)",0.9 fold
3,FIXa D104N/K106S,0.9 fold
4,FIXa K106N/V108S,1.6 fold
5,FIXa D85N,1.1 fold

# Test system: CB 2679d (modified FIX R318Y/R338E/T343R, SEQ ID NO:394), mature single-chain zymogen form
# Test: not given
# CB 2679d (modified FIX R318Y/R338E/T343R, SEQ ID NO:394), mature single-chain zymogen form, sequence (chain, as listed by the source R318Y R338E T343R): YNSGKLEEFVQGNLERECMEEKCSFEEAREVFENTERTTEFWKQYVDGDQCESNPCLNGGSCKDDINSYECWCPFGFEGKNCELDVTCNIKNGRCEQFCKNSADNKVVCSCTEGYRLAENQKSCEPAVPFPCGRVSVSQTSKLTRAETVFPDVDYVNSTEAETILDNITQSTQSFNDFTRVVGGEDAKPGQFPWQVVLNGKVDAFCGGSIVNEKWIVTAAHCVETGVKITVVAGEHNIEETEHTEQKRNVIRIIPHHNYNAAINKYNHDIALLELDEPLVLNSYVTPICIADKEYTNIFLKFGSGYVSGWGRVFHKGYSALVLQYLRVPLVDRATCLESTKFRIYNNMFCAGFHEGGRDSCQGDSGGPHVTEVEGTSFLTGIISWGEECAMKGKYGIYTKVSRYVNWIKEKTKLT
row,Substance,activation rate and extent of activation by factor XIa/calcium
1,"activated Factor XI (FXIa; Heamatologic Technologies, Inc.)",The activation rate of the polypeptide of SEQ ID NO:394 (CB 2679d) by factor XIa/calcium and the extent of activation (approximately 100%) were equivalent to those of commercial lots of BeneFIX®
